The source of these data is patent publication US20250136718A1 (MABWELL THERAPEUTICS, published 2025).

For assay [1], the target named is T1, mouse TMPRSS6 expressed on HEK293T cells, MoTMPRSS6-(His)6 (mouse, UniProt Q9DBI0 1-811).
T1 construct: HEK293T cells stably expressing the construct; also called murine TMPRSS6
T1 sequence: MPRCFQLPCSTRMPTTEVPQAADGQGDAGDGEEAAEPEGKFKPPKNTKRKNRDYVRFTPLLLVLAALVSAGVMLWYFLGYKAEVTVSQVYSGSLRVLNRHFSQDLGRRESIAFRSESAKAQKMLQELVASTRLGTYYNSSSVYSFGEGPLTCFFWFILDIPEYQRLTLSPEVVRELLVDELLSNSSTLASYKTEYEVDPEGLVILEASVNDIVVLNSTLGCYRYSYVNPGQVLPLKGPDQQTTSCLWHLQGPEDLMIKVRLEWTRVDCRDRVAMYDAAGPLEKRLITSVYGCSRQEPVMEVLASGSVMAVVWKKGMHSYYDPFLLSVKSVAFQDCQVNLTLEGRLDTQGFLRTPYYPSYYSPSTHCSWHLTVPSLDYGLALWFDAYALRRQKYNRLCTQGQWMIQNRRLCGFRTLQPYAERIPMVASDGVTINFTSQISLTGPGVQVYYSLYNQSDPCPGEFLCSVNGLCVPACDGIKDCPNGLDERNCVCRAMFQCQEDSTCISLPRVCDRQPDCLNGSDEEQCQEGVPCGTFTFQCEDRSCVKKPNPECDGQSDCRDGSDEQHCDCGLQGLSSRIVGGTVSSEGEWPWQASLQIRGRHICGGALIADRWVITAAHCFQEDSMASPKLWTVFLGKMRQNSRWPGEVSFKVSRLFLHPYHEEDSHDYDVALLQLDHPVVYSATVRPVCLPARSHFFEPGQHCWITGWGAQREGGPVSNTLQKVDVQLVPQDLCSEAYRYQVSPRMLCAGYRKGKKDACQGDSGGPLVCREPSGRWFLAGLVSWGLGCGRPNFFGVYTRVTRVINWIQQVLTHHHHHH
The assay can be described thus: summary of Example 4 (cell surface ELISA). How it is done: (§1) HEK293T cells stably expressing mouse TMPRSS6 (generated by LakePharma Inc as described above, FIGS. 4J, 4L, 4N, 4P, 4R, 4T) or cynomolgus monkey (generated in house as described above, FIGS. 4K, 4M, 4O, 4Q, 4S, 4U) were fixed with methanol (100%), and washed with dPBS (Dulbecco's phosphate-buffered saline, Corning Cellgro) before incubation with various concentrations of anti-TMPRSS6 antibodies and their humanized variants diluted in BSA medium (DMEM+1% Pen/Strep+10 mM HEPES+1 mg/ml BSA (Sigma-Aldrich)). Purified mouse IgG (FIGS. 4J-4O) or Human IgG1 (FIGS. 4P-4U) was used as a control. After incubation, cells were washed with BSA medium and then incubated with goat anti-mouse (Invitrogen, FIGS. 4J-4O) or anti-human (Millipore, FIGS. 4P-4U) IgG conjugated with HRP as a 2° antibody. Finally, cells were washed with dPBS to remove unbound antibody and color developed with ELISA liquid substrate (Sigma-Aldrich), followed by stopping the reaction with addition of the same volume of […] 1M H₂SO₄. Bound antibody was measured by absorbance at OD₄₅₀ₙₘ.

Assay [2] concerns the target T1, mouse TMPRSS6 expressed on HEK293T …. The assay can be described thus: FACS on HEK293T cells stably expressing MoTMPRSS6-(His)6. As for the experimental part:
Selected anti-TMPRSS6 antibodies were tested to determine whether any are capable of binding to TMPRSS6 from mouse and/or cynomolgus monkey. HEK293T cells stably expressing human TMPRSS6 (HuTMPRSS6-(His)₆) (generated by LakePharma Inc as described above), HEK293T cells stably expressing mouse TMPRSS6 (MoTMPRSS6-(His)₆) (SEQ ID NO: 98) (generated by LakePharma Inc as described above) and HEK293T cells transiently expressing cynomolgus monkey TMPRSS6 (CynoTMPRSS6-(His)₆) (SEQ ID NO: 99) (generated in house) were collected. HEK293T cells stably expressing human TMPRSS6 were used as a positive control and HEK293T cells were used as a negative control (as described above). Cells were blocked with dPBS+3% BSA before incubation with anti-TMPRSS6 antibodies diluted in dPBS+3% BSA. After incubation, cells were washed with dPBS and followed by another incubation with goat anti-mouse IgG conjugated with AlexaFluor-488 as a 2° antibody (Invitrogen). At last, cells were washed with dPBS to remove unbound antibody, re-suspended with dPBS+1 mM EDTA, and then subjected to FACS analysis using a NOVOCYTE® Flow Cytometer (ACEA Biosciences, Inc., San Diego CA). Bound antibody was determined by excitation at 488 nm and measurement of emission (FITC-A) at 530 nm. Results for these assays are shown in histogram plots in FIGS. 4A-4I.

Assay [3] has the same target. The assay can be described thus: cell surface ELISA on methanol-fixed HEK293T cells expressing mouse TMPRSS6. As for the experimental part: as §1

B1: humanized anti-TMPRSS6 antibody variant hzMWTx-003 Var (antibody, human IgG1, kappa, L234A L235A, V domains shown)
VH: QVQLVQSGAEVKKPGASVKVSCKASGFNIEDYYMHWVRQAPGQRLEWMGRIDPEDAETTYSPKFQGRVTIIPDTSANTAYMELSSLRSEDTAVYYCARSIYLDPMDYWGQGTLVTVSS
VL: DIQMTQSPKSLSASVGDRVTITCRASQDVTTALAWYQQKPGQSPKLLIYWATTRHSGVPSRFSGSGSGTDFTLTISSLQPEDFATYYCQQHYSTPYTFGQGTKLEIKR
notes: Human IgG1 / kappa
With B1, the binding result in assay [1] is listed as “binds”.

B2: humanized anti-TMPRSS6 antibody variant hzMWTx-001 Var (antibody, human IgG1, kappa, N297A, V domains shown)
VH: EVQLVQSGAEVKKPGASVKVSCKASGYTFTSYWITWVRQAPGQRLEWIGNIYPGSGSTYYNEKFKSKATITRDTSSRTAYMELSSLRSEDTAVYYCAPYDADYAMDYWGQGTLVTVSS
VL: DIQMTQSPSSLSASVGDRVTITCKASQDISNYLSWFQQKPGKAPKLLIYRANRLVEGVPSRFSGSGSGTDFTLTISSLQPEDFATYFCLQYDEFPLTFGGGTKVEIKR
notes: Human IgG1 / kappa
For the molecule B2, in assay [1], the binding result is reported as “binds”.

B3: MWTx-002 anti-TMPRSS6 monoclonal antibody (antibody, mouse IgG2b, kappa, V domains shown)
VH: EVQLQQSGAELVKPGASVKLSCTASGFNIKDYYIHWVKERTEQGLEWFGRIDPEDGESEYAPKFQGKATLTADTSSNTAYLQLSSLTSEDTAVYYCTRGDSMMVTYFDYWGQGTTLTVSS
VL: DIVMTQSHKFMSTSVGDRVSITCKASQDVSTAVAWYQQKPGQSPKLLIYWAFTRHTGVPDRFTSTGSGTDYALTISSVQAEDLALYYCQQHYRSPWTFGGGTKLEIKR
notes: Mouse monoclonal antibody from hybridoma (ATCC PTA-126760)
In the case of B3, the binding result in assay [2] is recorded as “no binding”.

B4: humanized anti-TMPRSS6 antibody variant hzMWTx-002 Var (antibody, human IgG1, kappa, N297A, V domains shown)
VH: EVQLVQSGAEVKKPGASVKVSCKASGFNIKDYYIHWVRQATGQGLEWMGRIDPEDAESEYAPKFQGRVTITADTSTDTAYMELSSLRSEDTAVYYCTRGDSMMVTYFDYWGQGTLVTVSS
VL: DIQMTQSPSSLSASVGDRVTITCKASQDVSTAVAWYQQKPGKAPKLLIYWAFTRHTGVPSRFSGSGSGTDYALTISSLQPEDFATYYCQQHYRSPWTFGGGTKVEIKR
notes: Human IgG1 / kappa
Consider B4, for which, in assay [3], the binding result was “no binding”.
